“And” between values parts separate entries of the source, which are not always exact repeats. Equal entries are not always repeated.
T1: mouse EP3 with Cycle 3 GFP at the C-terminus, on 293FT cells (mouse, UniProt P30557 1-365)
T1 construct: whole, on cells; also called mEP3; pcDNA-DEST47-mEP3; not shown: Cycle 3 GFP from the pcDNA-DEST47 vector
T1 sequence (looked up): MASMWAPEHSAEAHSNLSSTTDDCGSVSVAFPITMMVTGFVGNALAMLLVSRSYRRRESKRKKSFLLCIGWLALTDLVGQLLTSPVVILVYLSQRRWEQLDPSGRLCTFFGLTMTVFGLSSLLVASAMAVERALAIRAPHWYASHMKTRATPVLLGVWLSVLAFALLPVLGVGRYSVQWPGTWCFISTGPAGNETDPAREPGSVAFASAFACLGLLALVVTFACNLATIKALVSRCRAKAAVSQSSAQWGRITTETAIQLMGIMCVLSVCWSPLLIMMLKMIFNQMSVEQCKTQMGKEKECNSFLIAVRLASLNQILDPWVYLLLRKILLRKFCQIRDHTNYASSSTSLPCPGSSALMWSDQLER

T2: human EP1 with Cycle 3 GFP at the C-terminus, on 293FT cells (human, UniProt P34995 1-402)
T2 construct: whole, on cells; also called hEP1; pcDNA-DEST47-hEP1; not shown: Cycle 3 GFP from the pcDNA-DEST47 vector
T2 sequence (looked up): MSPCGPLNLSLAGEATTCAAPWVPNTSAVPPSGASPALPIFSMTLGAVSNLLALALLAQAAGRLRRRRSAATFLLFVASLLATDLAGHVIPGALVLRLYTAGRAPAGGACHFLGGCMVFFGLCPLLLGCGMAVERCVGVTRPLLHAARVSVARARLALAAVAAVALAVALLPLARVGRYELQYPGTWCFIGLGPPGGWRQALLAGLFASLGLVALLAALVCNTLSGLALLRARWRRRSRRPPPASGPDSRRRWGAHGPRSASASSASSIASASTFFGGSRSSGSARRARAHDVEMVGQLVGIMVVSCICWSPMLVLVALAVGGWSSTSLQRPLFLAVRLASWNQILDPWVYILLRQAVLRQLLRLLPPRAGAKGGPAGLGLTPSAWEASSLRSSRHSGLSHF

T3: mouse EP1 with Cycle 3 GFP at the C-terminus, on 293FT cells (mouse, UniProt P35375 1-405)
T3 construct: whole, on cells; also called mEP1; pcDNA-DEST47-mEP1; not shown: Cycle 3 GFP from the pcDNA-DEST47 vector
T3 sequence (looked up): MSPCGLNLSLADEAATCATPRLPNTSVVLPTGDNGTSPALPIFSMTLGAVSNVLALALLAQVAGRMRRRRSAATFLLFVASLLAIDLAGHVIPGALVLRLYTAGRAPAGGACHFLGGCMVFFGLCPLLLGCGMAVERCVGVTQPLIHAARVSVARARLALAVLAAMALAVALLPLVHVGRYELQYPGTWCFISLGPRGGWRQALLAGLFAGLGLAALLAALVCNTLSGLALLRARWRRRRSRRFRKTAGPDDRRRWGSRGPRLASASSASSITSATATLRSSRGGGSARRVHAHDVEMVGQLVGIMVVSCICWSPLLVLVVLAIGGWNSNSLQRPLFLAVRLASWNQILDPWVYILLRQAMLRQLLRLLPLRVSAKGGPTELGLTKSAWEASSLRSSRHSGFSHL


Legend:
[1] = target: human EP4 with V5 and 6xHIS tags at the C-terminus, on the CHO cell line stably expressing human EP4 (human, UniProt P35408 1-488); assay: cell-based or functional assay
[2] = target: T1, mouse EP3 with Cycle 3 GFP at the …; assay: flow cytometry on 293FT cells transiently expressing EP-GFP
Experimental: (§1) The pcDNA-DEST47-hEP1, pcDNA-DEST47-hEP2, pcDNA-DEST47-hEP3, pcDNA-DEST47-hEP4, pcDNA-DEST47-mEP1, pcDNA-DEST47-mEP2, pcDNA-DEST47-mEP3, and pcDNA-DEST47-mEP4 produced in (11) above (10 μg each) were each introduced into 293FT cells, using Lipofectamin 2000. On the following day, the cells were washed with HBSS, and were then removed from the cell culture dish using an enzyme-free cell dissociation buffer. The cells were then recovered by centrifugation. The thus recovered cells are referred to as 293FT cells transiently expressing EP.
(§2) The binding test of the anti-EP4 antibody of the present invention and the 293FT transiently expressing EP cells was carried out with a flow cytometer according to the method described in (6) above. 293FT cells (5×10⁵ cells) that transiently expressed each of 8 types of PGE₂ receptor subtypes were used. As a primary antibody, 1 μg of the anti-EP4 antibody NBG016-mAb14 or NBG016-mAb21, or a mouse isotype control antibody (manufactured by BioRegend) was used. As a secondary antibody, a PE-labeled anti-mouse IgG antibody was used.

[3] = target: T2, human EP1 with Cycle 3 GFP at the …; assay: as above
Experimental: as §1, §2

[4] = target: T4, human EP2 with Cycle 3 GFP at the C-terminus, on 293FT cells (human, UniProt P43116 1-358); assay: as above
T4 construct: whole, on cells; also called hEP2; pcDNA-DEST47-hEP2; not shown: Cycle 3 GFP from the pcDNA-DEST47 vector
Experimental: as §1, §2

[5] = target: T3, mouse EP1 with Cycle 3 GFP at the …; assay: as above
Experimental: as §1, §2

[6] = target: T5, mouse EP2 with Cycle 3 GFP at the C-terminus, on 293FT cells (mouse, UniProt Q62053 1-362); assay: as above
T5 construct: whole, on cells; also called mEP2; pcDNA-DEST47-mEP2; not shown: Cycle 3 GFP from the pcDNA-DEST47 vector
Experimental: as §1, §2

[7] = target: T6, mouse EP4 with Cycle 3 GFP at the C-terminus, on 293FT cells (mouse, UniProt P32240 1-513); assay: as above
T6 construct: whole, on cells; also called mEP4; pcDNA-DEST47-mEP4; not shown: Cycle 3 GFP from the pcDNA-DEST47 vector
Experimental: as §1, §2

Chain of human EP4 with V5 and 6xHIS tags at the C-terminus, on the CHO cell line stably expressing human EP4 (P35408 whole entry): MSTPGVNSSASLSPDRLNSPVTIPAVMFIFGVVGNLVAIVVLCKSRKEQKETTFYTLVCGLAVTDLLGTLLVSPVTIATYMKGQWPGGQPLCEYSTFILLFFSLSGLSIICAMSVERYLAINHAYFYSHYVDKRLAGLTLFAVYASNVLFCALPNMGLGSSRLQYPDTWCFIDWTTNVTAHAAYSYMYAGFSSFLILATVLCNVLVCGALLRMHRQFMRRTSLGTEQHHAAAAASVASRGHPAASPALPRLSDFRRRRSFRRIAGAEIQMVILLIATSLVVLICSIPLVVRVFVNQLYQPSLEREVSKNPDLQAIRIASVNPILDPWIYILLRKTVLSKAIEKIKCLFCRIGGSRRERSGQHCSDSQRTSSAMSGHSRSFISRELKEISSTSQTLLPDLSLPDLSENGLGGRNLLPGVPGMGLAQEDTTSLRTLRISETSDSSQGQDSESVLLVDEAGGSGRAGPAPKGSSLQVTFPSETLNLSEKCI
T5 sequence (Q62053 whole entry): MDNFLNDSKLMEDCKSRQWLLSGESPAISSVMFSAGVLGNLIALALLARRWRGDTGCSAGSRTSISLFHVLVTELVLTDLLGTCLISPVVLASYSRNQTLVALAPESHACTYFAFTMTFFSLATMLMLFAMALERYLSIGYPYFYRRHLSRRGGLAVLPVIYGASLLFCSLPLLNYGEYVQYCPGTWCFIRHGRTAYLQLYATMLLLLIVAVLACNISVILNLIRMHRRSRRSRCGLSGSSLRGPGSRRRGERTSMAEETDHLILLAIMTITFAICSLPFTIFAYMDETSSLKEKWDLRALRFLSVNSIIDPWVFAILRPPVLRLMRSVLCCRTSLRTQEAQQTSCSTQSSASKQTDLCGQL
T6 sequence (P32240 whole entry): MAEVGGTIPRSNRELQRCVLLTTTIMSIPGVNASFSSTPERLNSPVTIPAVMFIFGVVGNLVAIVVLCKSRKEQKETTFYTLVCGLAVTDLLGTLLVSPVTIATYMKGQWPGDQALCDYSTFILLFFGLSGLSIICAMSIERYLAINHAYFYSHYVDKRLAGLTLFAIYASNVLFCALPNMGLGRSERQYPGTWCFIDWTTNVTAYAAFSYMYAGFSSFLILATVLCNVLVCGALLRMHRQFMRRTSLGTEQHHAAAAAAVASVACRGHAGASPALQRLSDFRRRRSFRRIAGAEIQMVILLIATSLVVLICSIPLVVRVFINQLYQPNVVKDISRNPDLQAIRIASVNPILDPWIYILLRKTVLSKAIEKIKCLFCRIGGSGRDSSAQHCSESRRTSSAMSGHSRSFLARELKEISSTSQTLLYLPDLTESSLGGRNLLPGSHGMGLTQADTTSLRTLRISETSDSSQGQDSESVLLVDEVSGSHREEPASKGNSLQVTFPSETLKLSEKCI
T4 sequence (P43116 whole entry): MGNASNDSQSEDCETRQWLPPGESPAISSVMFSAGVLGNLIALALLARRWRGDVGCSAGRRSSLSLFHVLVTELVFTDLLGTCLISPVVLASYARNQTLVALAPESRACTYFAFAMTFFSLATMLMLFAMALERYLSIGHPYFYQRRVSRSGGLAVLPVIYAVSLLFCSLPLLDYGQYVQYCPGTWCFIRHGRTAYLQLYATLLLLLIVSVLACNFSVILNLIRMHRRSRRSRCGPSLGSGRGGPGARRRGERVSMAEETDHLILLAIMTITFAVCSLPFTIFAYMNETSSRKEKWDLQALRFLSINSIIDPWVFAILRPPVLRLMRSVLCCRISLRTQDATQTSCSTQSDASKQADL

IC50 of inhibition of PGE2-induced cAMP production in the CHO cell line stably expressing human EP4 (5×10^-11 M PGE2) [1]	IC50 of inhibition of PGE2-induced cAMP production in the CHO cell line stably expressing human EP4 (1.5×10^-10 M PGE2) [1]	Binder	binding result [2]	binding result [3]	binding result [4]	binding result [5]	binding result [6]	binding result [7]
0.15 µg/mL and ~1 nM	–	NBG016-mAb14 (antibody, V domains shown) VH: EIQLQQSGPELVKPGASVKVSCKASGFPFSTYNIYWVIQSHGKRLEWIGYIDPYNGGTSYNQKFRGKATLTVDKSSSTAYMHLNRLTSEDSAVYYCARRWYTYDGDWFAYWGQGTLVTVSA VL: DIKMTQSPSSMYVSLGERVTITCKASQDINRYLSWFQQKPGKSPKTLIYRANRLLDGVPSRFSGSGSGLDYSLTISSLEYEDMGNYYCLQYDEFPFTFGSGTKLEIKR	–	–	–	–	–	–
–	–	NBG016-mAb21 (antibody, mouse IgG2a, Mouse IgG2a, kappa, purified from hybridoma supernatant; the recombinant antibody was expressed from the same genes; The entries may carry a signal peptide; also called recombinant antibody NBG016-mAb21; anti-EP4 antibody) heavy: EIQLQQSGPELVKPGASVKVSCKASGFPFSTYNIYWVIQSHGKSLEWIGYIDPYNGGTSYNQKFRGKATLTVDKSSSTAYMHLNSLTSEDSAVYYCARRWYTYDGDWFAYWGQGTLVTVSAAKTTAPSVYPLAPVCGDTTGSSVTLGCLVKGYFPEPVTLTWNSGSLSSGVHTFPAVLQSDLYTLSSSVTVTSSTWPSQSITCNVAHPASSTKVDKKIEPRGPTIKPCPPCKCPAPNLLGGPSVFIFPPKIKDVLMISLSPIVTCVVVDVSEDDPDVQISWFVNNVEVHTAQTQTHREDYNSTLRVVSALPIQHQDWMSGKEFKCKVNNKDLPAPIERTISKPKGSVRAPQVYVLPPPEEEMTKKQVTLTCMVTDFMPEDIYVEWTNNGKTELNYKNTEPVLDSDGSYFMYSKLRVEKKNWVERNSYSCSVVHEGLHNHHTTKSFSHSPGK light: DIKMTQSPSSMYVSLGERVTITCKASQDINRYLSWFQQKPGKSPKTLIYRANRMLDGVPSRFSGSGSGQDYSLTISSLEYEDMGNYYCLQYDEFPFTFGSGTKLEIKRADAAPTVSIFPPSSEQLTSGGASVVCFLNNFYPKDINVKWKIDGSERQNGVLNSWTDQDSKDSTYSMSSTLTLTKDEYERHNSYTCEATHKTSTSPIVKSFNRNEC	no binding (tested: 1 µg per 5×10^5 cells)	no binding (tested: 1 µg per 5×10^5 cells)	no binding (tested: 1 µg per 5×10^5 cells)	no binding (tested: 1 µg per 5×10^5 cells)	no binding (tested: 1 µg per 5×10^5 cells)	no binding (tested: 1 µg per 5×10^5 cells)
–	1.1 µg/mL and ~6.9 nM	mouse IgG1 antibody NBG016-mAb21 (antibody) heavy: EIQLQQSGPELVKPGASVKVSCKASGFPFSTYNIYWVIQSHGKSLEWIGYIDPYNGGTSYNQKFRGKATLTVDKSSSTAYMHLNSLTSEDSAVYYCARRWYTYDGDWFAYWGQGTLVTVSSAKTTPPSVYPLAPGSAAQTNSMVTLGCLVKGYFPEPVTVTWNSGSLSSGVHTFPAVLQSDLYTLSSSVTVPSSPRPSETVTCNVAHPASSTKVDKKIVPRDCGCKPCICTVPEVSSVFIFPPKPKDVLTITLTPKVTCVVVDISKDDPEVQFSWFVDDVEVHTAQTQPREEQFNSTFRSVSELPIMHQDWLNGKEFKCRVNSAAFPAPIEKTISKTKGRPKAPQVYTIPPPKEQMAKDKVSLTCMITDFFPEDITVEWQWNGQPAENYKNTQPIMNTNGSYFVYSKLNVQKSNWEAGNTFTCSVLHEGLHNHHTEKSLSHSPGK light: DIKMTQSPSSMYVSLGERVTITCKASQDINRYLSWFQQKPGKSPKTLIYRANRMLDGVPSRFSGSGSGQDYSLTISSLEYEDMGNYYCLQYDEFPFTFGSGTKLEIKRADAAPTVSIFPPSSEQLTSGGASVVCFLNNFYPKDINVKWKIDGSERQNGVLNSWTDQDSKDSTYSMSSTLTLTKDEYERHNSYTCEATHKTSTSPIVKSFNRNEC	–	–	–	–	–	–
–	4.6 µg/mL and ~28.8 nM	NBG016-mAb9 (antibody, mouse IgG1, kappa, V domains shown, Mouse IgG1, kappa, purified from hybridoma supernatant; the recombinant antibody (293FT supernatant) was expressed from the same genes; The entries may carry a signal peptide; also called recombinant antibody NBG016-mAb9) VH: QVQLKESGPGLVAPSQSLSITCTVSGFSLSSYTIHWVRQPPGRGLEWLGVIWAGGSTNYNSALMSRLRISKDTSRSQVFLKVNSLQTDDSAIYYCARDDFGYGFAYWGQGTLVTVSA VL: DVLMTQTPLSLPVSLGDQASISCRSSQSLVHTTGNTYLEWYLQKPGQSPKLLIYKISRRFSGVPDRFSGSGSGTDFTLRISRVEAADLGIYYCFQGSHIPPTFGAGTKLERKR	no binding	no binding	no binding	no binding	no binding	no binding
